From paper PMC12258035, “AcABI5a integrates abscisic acid signaling to developmentally modulate fruit ascorbic acid biosynthesis in kiwifruit”

T1: AcABI5a-His (Actinidia chinensis? (cv. 'Donghong'), UniProt A0A2R6QW13 1-413)
T1 sequence: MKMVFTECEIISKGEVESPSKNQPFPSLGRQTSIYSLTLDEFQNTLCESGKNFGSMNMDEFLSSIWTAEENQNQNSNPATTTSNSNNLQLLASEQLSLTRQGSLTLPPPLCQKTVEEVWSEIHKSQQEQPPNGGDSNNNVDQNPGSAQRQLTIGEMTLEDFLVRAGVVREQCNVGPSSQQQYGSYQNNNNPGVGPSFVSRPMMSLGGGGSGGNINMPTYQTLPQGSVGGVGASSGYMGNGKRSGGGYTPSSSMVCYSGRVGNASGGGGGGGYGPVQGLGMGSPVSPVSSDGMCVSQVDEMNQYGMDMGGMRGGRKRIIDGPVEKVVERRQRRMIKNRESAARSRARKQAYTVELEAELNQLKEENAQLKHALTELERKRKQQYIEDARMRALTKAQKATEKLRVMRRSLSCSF

B1: AcMYBS1 promoter G-box probe (dsDNA)
DNA 1: ATATTTTGTTATACGTGTTAGAAGTTCA
DNA 2: TGAACTTCTAACACGTATAACAAAATAT
B2: AcMYBS1 mutant probe (dsDNA)
DNA 1: ATATTTTGTTAAAAAAATTAGAAGTTCA
DNA 2: TGAACTTCTAATTTTTTTAACAAAATAT
B3: AcABI5a promoter G-box probe (dsDNA)
DNA 1: GCACCCTTGTAGACGTGAAATTGTAAGA
DNA 2: TCTTACAATTTCACGTCTACAAGGGTGC
B4: AcABI5a promoter mutant probe (dsDNA)
DNA 1: GCACCCTTGTAAAAAAAAAATTGTAAGA
DNA 2: TCTTACAATTTTTTTTTTACAAGGGTGC

How the values were obtained:
AcABI5a-His [1] = molecular target: T1, AcABI5a-His; assay: EMSA; unlabeled competitor weakens the band; EMSA in polyacrylamide gels with FAM probes; buffer, salt, pH and temperature not stated (refers to Hou et al. [71]); conditions: protein: recombinant; tags: 6xHis at N- and C-terminus (pET-32a); fusion 65 kDa; chain copies: 2; label: FAM (on F strand); blunt
AcABI5a-His [2] = molecular target: T1, AcABI5a-His; assay: EMSA; EMSA in polyacrylamide gels with FAM probes; buffer, salt, pH and temperature not stated (refers to Hou et al. [71]); conditions: protein: recombinant; tags: 6xHis at N- and C-terminus (pET-32a); fusion 65 kDa; chain copies: 2; label: FAM (on F strand); blunt

Row | Binder | binding result (AcABI5a-His [1]) | binding result (AcABI5a-His [2])
1 | B1 | binds | –
2 | B2 | – | no binding
3 | B3 | binds | –
4 | B4 | – | no binding
